Measurements as given in patent US20210032365A1 (Chugai, published 2021).

How the values were obtained:
human C1s [1] = target: T1, human C1s (human, UniProt P09871 16-688); test: SPR; KD at pH 5.8 (3 uM Ca) over KD at pH 7.4 (1.2 mM Ca)
T1 construct: Analyte in the Biacore assays; also called hC1s; serum-derived human C1s (CompTech)
T1 sequence: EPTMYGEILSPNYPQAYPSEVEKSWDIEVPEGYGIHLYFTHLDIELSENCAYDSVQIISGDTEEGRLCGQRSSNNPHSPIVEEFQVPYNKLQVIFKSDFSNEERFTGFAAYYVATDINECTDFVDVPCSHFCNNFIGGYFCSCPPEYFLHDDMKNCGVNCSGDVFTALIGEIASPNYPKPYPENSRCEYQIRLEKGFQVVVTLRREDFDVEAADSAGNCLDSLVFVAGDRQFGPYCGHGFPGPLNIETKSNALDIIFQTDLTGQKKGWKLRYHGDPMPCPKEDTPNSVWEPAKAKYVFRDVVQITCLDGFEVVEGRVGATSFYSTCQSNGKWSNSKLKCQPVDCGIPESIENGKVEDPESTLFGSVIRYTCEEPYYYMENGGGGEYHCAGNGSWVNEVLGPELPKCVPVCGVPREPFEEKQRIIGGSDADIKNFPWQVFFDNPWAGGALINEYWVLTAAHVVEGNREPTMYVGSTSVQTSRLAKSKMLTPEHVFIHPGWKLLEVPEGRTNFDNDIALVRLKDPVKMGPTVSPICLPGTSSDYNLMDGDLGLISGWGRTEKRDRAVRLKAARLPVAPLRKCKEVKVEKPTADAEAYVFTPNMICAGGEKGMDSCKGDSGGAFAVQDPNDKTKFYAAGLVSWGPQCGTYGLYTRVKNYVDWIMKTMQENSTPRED
Experimental: (§1) All variants were transiently expressed and purified by the method described above. The binding affinity of each histidine-substituted variant at pH 7.4 and pH 5.8 was determined at 37 degrees C. using Biacore T200 instrument (GE Healthcare). Recombinant Protein A/G (Pierce) was immobilized onto all flow cells of a CM4 sensor chip using an amine coupling kit (GE Healthcare). Antibodies and analytes were prepared in 7(+) buffer (20 mM ACES, 150 mM NaCl, 1.2 mM CaCl2, 0.05% Tween 20, 0.005% NaN3, pH 7.4), 5(+) buffer (20 mM ACES, 150 mM NaCl, 1.2 mM CaCl2, 0.05% Tween 20, 0.005% NaN3, pH 5.8), or 5(−) buffer (20 mM ACES, 150 mM NaCl, 3 micro M CaCl2, 0.05% Tween 20, 0.005% NaN3, pH 5.8). Each antibody was captured onto the sensor surface by protein A/G. Antibody capture levels were aimed at 200 resonance unit (RU). Serum-derived human C1s (CompTech) or recombinant C1s prepared in EXAMPLE 1 was injected at 50 nM, followed by dissociation. The sensor surface was regenerated in each cycle with 10 mM Glycine-HCl, pH 1.5. […] The ratio of KD 5.8+ to KD 7.4+(“KD 5+/7+”) and that of KD 5.8− to KD 7.4+(“KD 5−/7+”) were calculated. When the KD 5+/7+ or KD 5−/7+ of a variant is larger than that of the parent antibody IPN009VH2-SG4GK/IPN009VK3-SK1, that variant is considered to be “pH”- or “pH and Ca”-dependent, respectively. When binding response in 5(+) buffer and/or in 5(−) buffer of a variant is much lower than that of IPN09VH2/IPN009VK3, that variant is also considered as “pH”- and/or “pH and Ca”-dependent. Therefore, such mutations are effective to generate “pH”- and/or “pH and Ca”-dependent antibody. To further enhance “pH” and/or “pH and Ca” dependency, a combination of histidine mutations was conducted. Antibodies with combinations of histidine mutations were evaluated using Biacore by the method described above.

human C1s [2] = target: T1, human C1s; test: SPR; KD at pH 5.8 (1.2 mM Ca) over KD at pH 7.4 (1.2 mM Ca)
Experimental: as §1

human C1s [3] = target: T1, human C1s; test: SPR (Biacore T200, 37C), Ab captured on protein A/G; pH 5.8, 3 uM Ca
Experimental: as §1

human C1s [4] = target: T1, human C1s; test: SPR (Biacore T200, 37C), Ab captured on protein A/G; pH 5.8, 1.2 mM Ca
Experimental: as §1

human C1s [5] = target: T1, human C1s; test: SPR (Biacore T200, 37C), Ab captured on protein A/G; pH 7.4, 1.2 mM Ca
Experimental: as §1

human C1s [6] = target: T1, human C1s; test: SPR (Biacore T200, 37C), Ab captured on protein A/G; pH 5.8, 1.2 mM Ca; pH 5.8, 1.2 mM Ca
human C1s [7] = target: T1, human C1s; test: SPR (Biacore T200, 37C), Ab captured on protein A/G; pH 7.4, 1.2 mM Ca; pH 7.4, 1.2 mM Ca
Experimental: All variants were transiently expressed and purified by the method described above. The binding affinity of each histidine-substituted variant at pH 7.4 and pH 5.8 was determined at 37 degrees C. using Biacore T200 instrument (GE Healthcare). Recombinant Protein A/G (Pierce) was immobilized onto all flow cells of a CM4 sensor chip using an amine coupling kit (GE Healthcare). Antibodies and analytes were prepared in 7(+) buffer (20 mM ACES, 150 mM NaCl, 1.2 mM CaCl2, 0.05% Tween 20, 0.005% NaN3, pH 7.4), 5(+) buffer (20 mM ACES, 150 mM NaCl, 1.2 mM CaCl2, 0.05% Tween 20, 0.005% NaN3, pH 5.8), or 5(−) buffer (20 mM ACES, 150 mM NaCl, 3 micro M CaCl2, 0.05% Tween 20, 0.005% NaN3, pH 5.8). Each antibody was captured onto the sensor surface by protein A/G. Antibody capture levels were aimed at 200 resonance unit (RU). Serum-derived human C1s (CompTech) or recombinant C1s prepared in EXAMPLE 1 was injected at 50 nM, followed by dissociation. The sensor surface was regenerated in each cycle with 10 mM Glycine-HCl, pH 1.5. […] The ratio of KD 5.8+ to KD 7.4+(“KD 5+/7+”) and that of KD 5.8− to KD 7.4+(“KD 5−/7+”) were calculated. […] Antibodies with combinations of histidine mutations were evaluated using Biacore by the method described above.

B1: C1_IPN92H0288-SG4GK/IPN93L0211-SK1 (antibody, human IgG4 S228P, kappa)
heavy: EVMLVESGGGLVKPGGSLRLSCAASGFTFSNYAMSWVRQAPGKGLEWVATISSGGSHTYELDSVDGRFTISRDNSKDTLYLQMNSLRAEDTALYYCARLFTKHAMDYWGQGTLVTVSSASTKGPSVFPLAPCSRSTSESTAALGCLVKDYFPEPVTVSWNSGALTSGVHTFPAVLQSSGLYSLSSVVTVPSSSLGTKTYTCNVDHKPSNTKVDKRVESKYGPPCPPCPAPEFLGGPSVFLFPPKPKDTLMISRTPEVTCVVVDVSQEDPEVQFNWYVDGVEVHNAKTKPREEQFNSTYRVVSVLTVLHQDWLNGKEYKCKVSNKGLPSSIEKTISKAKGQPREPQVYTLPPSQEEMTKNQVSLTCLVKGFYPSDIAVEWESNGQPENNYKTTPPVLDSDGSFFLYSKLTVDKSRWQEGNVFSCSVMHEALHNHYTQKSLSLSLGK
light: QIVLTQSPATLSLSPGERATLSCTASSEVSESYLHWYQQKPGKAPKLWIYSTSNLASGVPSRFSGSGSGTDYTLTISSLQPEDFATYYCHQYYRLHPITFGQGTKLEIKRTVAAPSVFIFPPSDEQLKSGTASVVCLLNNFYPREAKVQWKVDNALQSGNSQESVTEQDSKDSTYSLSSTLTLSKADYEKHKVYACEVTHQGLSSPVTKSFNRGEC
notes: also called IPN92H0288/IPN93L0211
KD 5(-)/7(+) (human C1s [1]): 6.23 | KD 5(+)/7(+) (human C1s [2]): 9.9 | koff (human C1s [3]): 0.00504 s⁻¹ | kon (human C1s [3]): 485000 M⁻¹ s⁻¹ | koff (human C1s [4]): 0.0292 s⁻¹ | kon (human C1s [5]): 527000 M⁻¹ s⁻¹ | kon (human C1s [6]): 1.77e+06 M⁻¹ s⁻¹ | koff (human C1s [7]): 0.00088 s⁻¹
